Measured values published in patent US8383117.

Tests used:
[1] = target: T1, CD44E (CD44 isoform 3, epithelial form) (human, UniProt P16070 21-742); experiment: flow cytometry, MB435S cells
T1 construct: also called CD44v8-10; VB1-008 Ag
Text: (§1) Appropriate isotype-matched controls were also used in the study.

[2] = target: T1, CD44E (CD44 isoform 3, epithelial form); experiment: flow cytometry, A-375 cells
[3] = target: T1, CD44E (CD44 isoform 3, epithelial form); experiment: flow cytometry, DAUDI cells (called antigen-negative); control 4B5-IgG
[4] = target: T1, CD44E (CD44 isoform 3, epithelial form); experiment: flow cytometry, MCF-7 cells (weakly positive line)
[5] = target: T1, CD44E (CD44 isoform 3, epithelial form); experiment: flow cytometry, A-375 cells, surface-bound antibody after 120 min at 37 °C
[6] = target: T1, CD44E (CD44 isoform 3, epithelial form); experiment: flow cytometry, MDA-MB-435S cells (very positive line)
[7] = target: T1, CD44E (CD44 isoform 3, epithelial form); experiment: flow cytometry, MB435S cells; control 4B5-IgG
Text: as §1

[8] = target: T1, CD44E (CD44 isoform 3, epithelial form); experiment: flow cytometry, MDA-MB-231 cells (moderately positive line)
[9] = target: T1, CD44E (CD44 isoform 3, epithelial form); experiment: flow cytometry, A-375 cells kept on ice for 120 min; over human IgG (4B5)
[10] = target: T1, CD44E (CD44 isoform 3, epithelial form); experiment: flow cytometry, RAMOS cells; control 4B5-IgG
Text: as §1

[11] = target: T1, CD44E (CD44 isoform 3, epithelial form); experiment: flow cytometry, RAMOS cells
[12] = target: T1, CD44E (CD44 isoform 3, epithelial form); experiment: flow cytometry, MB231 cells; control 4B5-IgG
Text: as §1

[13] = target: T1, CD44E (CD44 isoform 3, epithelial form); experiment: flow cytometry, PANC-1 cells (no antigen purified from this line)
[14] = target: T1, CD44E (CD44 isoform 3, epithelial form); experiment: flow cytometry, PANC-1 cells; control 4B5-IgG
Text: as §1

[15] = target: T1, CD44E (CD44 isoform 3, epithelial form); experiment: flow cytometry, A-375 cells; control 4B5-IgG
Text: as §1

[16] = target: T1, CD44E (CD44 isoform 3, epithelial form); experiment: flow cytometry, A-375 cells (very positive line)
[17] = target: T1, CD44E (CD44 isoform 3, epithelial form); experiment: flow cytometry, MCF-7 cells
Text: as §1

[18] = target: T1, CD44E (CD44 isoform 3, epithelial form); experiment: flow cytometry saturation curve on A-375 tumor cells, Lineweaver-Burk; antigen on the cells identified later in the filing as CD44E
Experimental: Values and graphical analysis were generated using Sigma Plot (Jandel Scientific, San Rafael, Calif.). The inverse of the determined median fluorescence was plotted as a function of the inverse of antibody concentration to determine KD by the Lineweaver-Burk method. A straight line was generated and the KD was calculated from the slope of the curve.

[19] = target: T1, CD44E (CD44 isoform 3, epithelial form); experiment: flow cytometry, DAUDI cells (called antigen-negative)
[20] = target: T1, CD44E (CD44 isoform 3, epithelial form); experiment: flow cytometry, MCF-7 cells; control 4B5-IgG
Text: as §1

[21] = target: T1, CD44E (CD44 isoform 3, epithelial form); experiment: flow cytometry, A-375 cells, surface-bound antibody after 60 min at 37 °C
[22] = target: T1, CD44E (CD44 isoform 3, epithelial form); experiment: flow cytometry, RAMOS cells (called a negative line)
[23] = target: T1, CD44E (CD44 isoform 3, epithelial form); experiment: flow cytometry, MB231 cells
Text: as §1

[24] = target: T1, CD44E (CD44 isoform 3, epithelial form); experiment: flow cytometry, PANC-1 cells (called a negative line in the immunoprecipitation)
[25] = target: T1, CD44E (CD44 isoform 3, epithelial form); experiment: flow cytometry, DAUDI cells (called antigen-negative); remark: listed apart in the source

T1 sequence (P16070 other isoform, or with tags, fused parts or gaps limits assumed): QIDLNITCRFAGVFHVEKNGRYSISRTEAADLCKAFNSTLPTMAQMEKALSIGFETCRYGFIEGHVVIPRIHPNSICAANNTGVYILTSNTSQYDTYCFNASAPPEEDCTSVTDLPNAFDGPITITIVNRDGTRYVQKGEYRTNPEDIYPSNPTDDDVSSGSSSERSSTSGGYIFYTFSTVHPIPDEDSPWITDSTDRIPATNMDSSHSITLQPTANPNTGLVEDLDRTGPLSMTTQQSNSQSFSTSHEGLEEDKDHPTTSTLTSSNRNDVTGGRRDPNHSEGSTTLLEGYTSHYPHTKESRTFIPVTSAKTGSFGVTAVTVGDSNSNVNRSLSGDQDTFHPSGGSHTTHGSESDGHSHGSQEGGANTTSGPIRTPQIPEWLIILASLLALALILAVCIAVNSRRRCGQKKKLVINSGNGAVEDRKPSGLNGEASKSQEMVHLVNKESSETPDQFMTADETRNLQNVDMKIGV

- Flow results [1]: 15.8 fold
- Flow results [2]: 11.1 fold
- fold-increase in median fluorescence over isotype-matched control [3]: 1 fold
- increase in median fluorescence over isotype-matched control (MF) [4]: 4.67 fold
- Fold-increase in MF [5]: 12 fold
- increase in median fluorescence over isotype-matched control (MF) [6]: 15.8 fold
- fold-increase in median fluorescence over isotype-matched control [7]: 15.8 fold
- increase in median fluorescence over isotype-matched control (MF) [8]: 14.2 fold
- Fold-increase in MF [9]: 31.7 fold
- fold-increase in median fluorescence over isotype-matched control [10]: 1.1 fold
- Flow results [11]: 1.1 fold
- fold-increase in median fluorescence over isotype-matched control [12]: 14.2 fold
- Flow results [13]: 8.95 fold
- fold-increase in median fluorescence over isotype-matched control [14]: 8.3 fold
- fold-increase in median fluorescence over isotype-matched control [15]: 13.3 fold
- increase in median fluorescence over isotype-matched control (MF) [16]: 13.3 fold
- Flow results [17]: 4.63 fold
- Kd [18]: 58.8 nM
- Flow results [19]: 1 fold
- fold-increase in median fluorescence over isotype-matched control [20]: 4.63 fold
- Fold-increase in MF [21]: 13.5 fold
- increase in median fluorescence over isotype-matched control (MF) [22]: 1.3 fold
- Flow results [23]: 14.2 fold
- increase in median fluorescence over isotype-matched control (MF) [24]: 8.3 fold
- increase in median fluorescence over isotype-matched control (MF) [25]: 1.1 fold
B1: VB1-008 monoclonal antibody (antibody, V domains shown)
VH: QVQLQELGPRLVRPSQTLILTCTVSGGSVSGDEYYWSWLRQTPGKGLEWIGYMSYRGSSYYSPSLQSRVTIAVDRSKNEFSLKLTSVTAADAAVYFCARKYCGGDCRSGFDIWGRGTMVTVAS
VL: YELTQPPSVSVSPGQKAFITCSGDNLGNKYVCWYQQKPGQSPVLVIYEDTKRPSGIPERFSASNSGNTATLTISGTQPIDEADYYCQAWDSRTEIFGTGTKVTVLS
notes: also called 17P2/C12
